Assay results as given in US20060263381A1 (INSTITUT GUSTAVE ROUSSY, published 2006).
Like-named read-outs stand apart in the source and are kept apart here.

B1: p248G9 (YLEYRQVPG) (peptide)
peptide: YLEYRQVPG
notes: Native peptide of MAGE-A2, -A3, -A4, -A6, -A10, -A12
B2: p248D9 (YLEYRQVPD) (peptide)
peptide: YLEYRQVPD
notes: Native peptide of MAGE-A1
B3: p248V9 (YLEYRQVPV) (peptide)
peptide: YLEYRQVPV
notes: Variant of p248G9 and p248D9 with valine at P9
B4: p174Y1 (YLGLSYDGLL) (peptide)
peptide: YLGLSYDGLL
notes: Variant of p174 with tyrosine at P1
B5: p174 (CLGLSYDGLL) (peptide)
peptide: CLGLSYDGLL
notes: Native peptide of MAGE-A1, -A2, -A3, -A4, -A6, -A12; It is named by the position of its first residue in MAGE-A1
B6: p174Y1V10 (YLGLSYDGLV) (peptide)
peptide: YLGLSYDGLV
notes: Variant of p174 with tyrosine at P1 and valine at P10
B7: p262L2 (YLFLWGPRA) (peptide)
peptide: YLFLWGPRA
notes: Variant of p262 with leucine at P2
B8: p911Y1V9 (YVWELMTFGV) (peptide)
peptide: YVWELMTFGV
notes: It is a 10-mer, although the label says V9

Key:
HLA-A*0201 molecule [1] = target: T1, HLA-A*0201 molecule (human); test: T2 cells loaded with 100 µM peptide, Brefeldin A, flow cytometry with BB7.2 at 0-8 h
T1 construct: MHC class I molecule on T2 cells, to which the test peptides are added from outside

HLA-A*0201 molecule [2] = target: T1, HLA-A*0201 molecule; test: T2 cell HLA-A*0201 stabilisation, flow cytometry with BB7.2
Procedure: (§1) The cells are then analyzed by flow cytometry. […] The mean RA for each peptide is determined from at least three independent experiments. In all the experiments, 20& of the maximum fluorescence was obtained for 1 to 3 μM of the reference peptide.

HLA-A*0201 molecule [3] = target: T1, HLA-A*0201 molecule; test: as above; remark: listed apart in the source
Procedure: as §1

| Binder | DC50 (time for loss of 50% of the complexes) (HLA-A*0201 molecule [1]) | RA (relative affinity) (HLA-A*0201 molecule [2]) | RA (relative affinity) (HLA-A*0201 molecule [3]) |
| --- | --- | --- | --- |
| B1 | < 2 h | > 27 ratio to reference peptide HIVpol 589 |  |
| B2 | < 2 h | 22.5 ratio to reference peptide HIVpol 589 |  |
| B3 | 4 h | 1.8 ratio to reference peptide HIVpol 589 |  |
| B4 | < 2 h | 13 ratio to reference peptide HIVpol 589 |  |
| B5 | < 2 h | 41 ratio to reference peptide HIVpol 589 |  |
| B6 | < 2 h | 2.5 ratio to reference peptide HIVpol 589 |  |
| B7 | 6 h | 0.2 ratio to reference peptide HIVpol 589 |  |
| B8 |  |  | 2.03 ratio to reference peptide HIVpol 589 |
